The target of data set [1] is T1, Cellobiose phosphorylase CbpA (Ruminiclostridium cellulolyticum, UniProt B8I421).
T1 construct: gene Ccel_2109; C-terminal 6xHis tag, produced in E. coli, purified to homogeneity
T1 sequence (B8I421 1-811): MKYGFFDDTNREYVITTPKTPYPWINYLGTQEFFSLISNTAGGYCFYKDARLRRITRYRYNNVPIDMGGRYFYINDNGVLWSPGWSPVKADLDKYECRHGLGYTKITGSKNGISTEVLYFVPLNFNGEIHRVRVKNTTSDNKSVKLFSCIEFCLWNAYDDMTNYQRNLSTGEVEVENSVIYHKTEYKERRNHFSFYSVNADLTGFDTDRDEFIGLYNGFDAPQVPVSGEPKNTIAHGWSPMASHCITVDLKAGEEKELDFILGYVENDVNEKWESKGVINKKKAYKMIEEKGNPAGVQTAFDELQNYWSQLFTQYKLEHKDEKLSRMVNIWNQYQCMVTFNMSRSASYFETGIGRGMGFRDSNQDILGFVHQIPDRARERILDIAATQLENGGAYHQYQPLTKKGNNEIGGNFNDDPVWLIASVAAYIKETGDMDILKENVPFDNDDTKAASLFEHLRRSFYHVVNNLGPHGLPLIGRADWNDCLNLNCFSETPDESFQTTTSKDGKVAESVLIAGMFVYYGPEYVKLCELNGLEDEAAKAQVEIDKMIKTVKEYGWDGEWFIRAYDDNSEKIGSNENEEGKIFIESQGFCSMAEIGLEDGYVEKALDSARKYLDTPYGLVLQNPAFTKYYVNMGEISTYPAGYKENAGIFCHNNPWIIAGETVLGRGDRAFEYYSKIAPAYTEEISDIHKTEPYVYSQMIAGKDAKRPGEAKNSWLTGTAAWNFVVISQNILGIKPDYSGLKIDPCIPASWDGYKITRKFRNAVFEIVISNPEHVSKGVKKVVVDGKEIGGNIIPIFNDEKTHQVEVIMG
The data set can be described thus: cellobiose phosphorolysis, HPAEC-PAD. Format: biochemical. The conditions noted are these: competitive; cellobiose 0.05 to 10 mM varied, 50 mM phosphate, pH 7.0, 37°C; read-out: Inhibitor. An excerpt: cellobiose phosphorolysis, HPAEC-PAD on Cellobiose phosphorylase CbpA

The target of the next data set is T2, β-Glucosidase Glu3A.
T2 construct: cytosolic enzyme, purified as formerly reported
Description: pNPβGlu hydrolysis, A400. In kind it is biochemical, Ruminiclostridium cellulolyticum. The conditions noted are these: competitive; substrate p-nitrophenyl-β-D-glucoside, 50 mM phosphate pH 7.0, 37°C; read-out: Mean enzyme concn (mM) ± SD^a / β-Glucosidase (Glu3A). An excerpt:
pNPβGlu hydrolysis, A400 on β-Glucosidase Glu3A

The next data set concerns the target T3, α-Xylosidase Xyl31A (Ruminiclostridium cellulolyticum, UniProt B8I9A6).
T3 construct: gene Ccel_1004; cytosolic enzyme, purified as formerly reported
The data set can be described thus: isoprimeverose hydrolysis, HPAEC-PAD. Format: biochemical. As to conditions: competitive; substrate isoprimeverose 0.5 to 8 mM, 50 mM phosphate pH 6.0, 37°C; read-out: Mean enzyme concn (mM) ± SD^a / α-Xylosidase (Xyl31A). From the text: isoprimeverose hydrolysis, HPAEC-PAD on α-Xylosidase Xyl31A

Another data set addresses T4, β-Galactosidase Gal42A.
T4 construct: cytosolic enzyme, purified as formerly reported
Description: pNPβGal hydrolysis, A400. Format: biochemical, Ruminiclostridium cellulolyticum. The conditions noted are these: substrate p-nitrophenyl-β-D-galactoside, 50 mM phosphate pH 7.0, 37°C, read-out: Mean enzyme concn (mM) ± SD^a / β-Galactosidase Gal42A. From the text: pNPβGal hydrolysis, A400 on β-Galactosidase Gal42A

The target in the next data set is T5, Galactokinase (Ruminiclostridium cellulolyticum, UniProt B8I0X2).
T5 construct: gene galK; C-terminal 6xHis tag (pET28a-3238), E. coli BL21(DE3)
T5 sequence (B8I0X2 1-397): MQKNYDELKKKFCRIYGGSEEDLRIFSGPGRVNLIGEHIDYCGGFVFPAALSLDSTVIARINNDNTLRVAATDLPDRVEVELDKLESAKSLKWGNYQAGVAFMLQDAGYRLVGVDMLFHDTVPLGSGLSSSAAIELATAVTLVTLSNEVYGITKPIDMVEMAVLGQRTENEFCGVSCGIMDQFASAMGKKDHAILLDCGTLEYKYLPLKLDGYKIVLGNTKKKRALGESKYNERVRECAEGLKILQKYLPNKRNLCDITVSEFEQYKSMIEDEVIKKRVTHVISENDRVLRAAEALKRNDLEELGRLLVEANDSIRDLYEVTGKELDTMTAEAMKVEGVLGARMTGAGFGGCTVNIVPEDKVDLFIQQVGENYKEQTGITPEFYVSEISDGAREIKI
The data set can be described thus: galactose phosphorylation, HPLC-RI. Format: biochemical. The conditions noted are these: 5 mM GTP, 25 mM MgCl2, 25 mM HEPES pH 7.0, 37°C; read-out: Substrate(s) (fixed cosubstrate concn)^a. From the text: (§1) galactose phosphorylation, HPLC-RI on Galactokinase

Substrate in the data set “isomerization, HPAEC-PAD”: O=P(O)(O)O[C@H]1O[C@H](CO)[C@@H](O)[C@H](O)[C@H]1O
The data set can be described thus: isomerization, HPAEC-PAD. In kind it is biochemical, Ruminiclostridium cellulolyticum. The conditions noted are these: 25 mM HEPES pH 7.0, 37°C. From the text:
isomerization, HPAEC-PAD on α-Phosphoglucomutase

Substrate in data set [2]: Nc1ncnc2c1ncn2[C@@H]1O[C@H](COP(=O)(O)OP(=O)(O)OP(=O)(O)O)[C@@H](O)[C@H]1O
The data set can be described thus: galactose phosphorylation, HPLC-RI. Format: biochemical, Ruminiclostridium cellulolyticum. As to conditions: 100 mM galactose, 25 mM MgCl2, 25 mM HEPES pH 7.0, 37°C.
Description: as §1

Substrate in data set [3]: Nc1nc2c(ncn2[C@@H]2O[C@H](COP(=O)(O)OP(=O)(O)OP(=O)(O)O)[C@@H](O)[C@H]2O)c(=O)[nH]1
Description: galactose phosphorylation, HPLC-RI. Format: biochemical, Ruminiclostridium cellulolyticum. The conditions noted are these: 100 mM galactose, 25 mM MgCl2, 25 mM HEPES pH 7.0, 37°C.
Description: as §1

Substrate in the data set “isomerization, HPLC-RI”: O=C(CO)[C@@H](O)[C@H](O)CO
The data set can be described thus: isomerization, HPLC-RI. As to conditions: 10 mM MgCl2, 25 mM HEPES pH 7.0, 37°C. Format: biochemical, Ruminiclostridium cellulolyticum. An excerpt:
isomerization, HPLC-RI on Xylose isomerase

Substrate in data set [4]: Nc1ncnc2c1ncn2[C@@H]1O[C@H](COP(=O)(O)OP(=O)(O)OP(=O)(O)O)[C@@H](O)[C@H]1O
Description: purified protein. Format: biochemical, Ruminiclostridium cellulolyticum. As to conditions: 5 mM glucose, 25 mM MgCl2, 25 mM HEPES pH 7.0, 37°C, ATP tested only up to 20 mM (below Km). From the text: (§2) glucose phosphorylation, HPLC-RI on Hexokinase

Substrate in data set [5]: Nc1nc2c(ncn2[C@@H]2O[C@H](COP(=O)(O)OP(=O)(O)OP(=O)(O)O)[C@@H](O)[C@H]2O)c(=O)[nH]1
The data set can be described thus: purified protein. As to conditions: 5 mM glucose, 25 mM MgCl2, 25 mM HEPES pH 7.0, 37°C. In kind it is biochemical, Ruminiclostridium cellulolyticum.
Description: as §2

Read-outs that look alike come from different tables or passages of the source.

T3 sequence (B8I9A6 entry or part of it): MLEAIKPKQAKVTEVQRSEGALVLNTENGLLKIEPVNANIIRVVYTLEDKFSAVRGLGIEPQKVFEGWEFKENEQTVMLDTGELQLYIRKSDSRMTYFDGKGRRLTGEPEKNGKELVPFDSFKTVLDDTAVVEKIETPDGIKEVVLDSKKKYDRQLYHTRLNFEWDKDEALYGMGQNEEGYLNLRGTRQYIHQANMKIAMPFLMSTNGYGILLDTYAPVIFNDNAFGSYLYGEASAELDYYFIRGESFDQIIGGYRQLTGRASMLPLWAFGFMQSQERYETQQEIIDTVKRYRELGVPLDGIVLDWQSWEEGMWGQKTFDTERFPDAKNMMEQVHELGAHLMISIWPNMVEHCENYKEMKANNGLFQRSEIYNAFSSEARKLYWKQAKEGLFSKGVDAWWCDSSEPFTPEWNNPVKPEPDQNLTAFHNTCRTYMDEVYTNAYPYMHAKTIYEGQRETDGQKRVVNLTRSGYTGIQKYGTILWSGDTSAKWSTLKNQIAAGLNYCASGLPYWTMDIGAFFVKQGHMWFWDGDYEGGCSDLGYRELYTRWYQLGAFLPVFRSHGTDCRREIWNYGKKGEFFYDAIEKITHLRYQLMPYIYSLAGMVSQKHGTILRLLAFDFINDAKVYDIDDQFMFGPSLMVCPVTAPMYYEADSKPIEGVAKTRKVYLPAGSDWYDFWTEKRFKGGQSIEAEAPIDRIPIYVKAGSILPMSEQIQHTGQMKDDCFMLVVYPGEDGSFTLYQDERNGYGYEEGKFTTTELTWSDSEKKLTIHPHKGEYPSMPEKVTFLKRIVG

For `OC[C@H]1OC(O)[C@H](O)[C@@H](O)[C@@H]1O` (stereo partly shown) [Glucose], the Ki was 680 ± 40 µM in data set [1], 3.99 ± 0.33 mM on β-Glucosidase Glu3A and 1.83 ± 0.42 mM on α-Xylosidase Xyl31A.

Consider `OC[C@H]1OC(O)[C@H](O)[C@@H](O)[C@H]1O` (stereo partly shown) [Galactose], for which the Ki on β-Galactosidase Gal42A (competitive) amounted to 2.35 ± 0.05 mM. The Km on Galactokinase came to 15.5 ± 1.8 mM.

As to `OC[C@H]1O[C@@H](O[C@H]2[C@H](O)[C@@H](O)C(O)O[C@@H]2CO)[C@H](O)[C@@H](O)[C@@H]1O` (stereo partly shown) [Cellobiose], the Ki on β-Galactosidase Gal42A (noncompetitive) came out at 19.3 ± 1.41 mM; on β-Glucosidase Glu3A, 36.3 ± 5.57 mM.

B1: α-Phosphoglucomutase (Ruminiclostridium cellulolyticum H10) (protein)
chain: MEYLSKLNFWLDNEYFDQDTKNELLSIKNNAKEVEDRFYKSLEFGTGGLRGIIGAGTNRINIYTVRVASQGLANYINQMGKQDKGIVIAYDPRFMSPEFSLEAAKVFCANGIKAYLFDELRPTPQLSFAVRYLKAAAGVVVTASHNPKQYNGYKVYGEDGGQLSIDGSNAVISEINKITDITKVNIISKEDAASKGLLQIIGSEIDDAYIEMLKKLRINKDAVSKVADTFKIVYTPLHGAGNKPVRRILAESGFKEVLVVKEQELPDSQFSTVKSPNPEERSAFELAIKLASDNNVDLIIGTDPDSDRVGVVVRKNDGEYAVLTGNQTGCLLLEYILTAMKEEGKLPANGFVVKTIVTTELARIIADFYNVELVEVLTGFKFIGEQIKLRDENGNQKYLFGFEESYGYLAGTDVRDKDAVVASMLVAEMAAYYKVKGISLYDALTNLYEKYGYFVEGISSFTLEGKDGVMKIKEALTTMRKTKYESFGGIKVKAIRDYQKSERHVIASGATEKITLPESDVLYFEMEDGSWFCVRPSGTEPKIKIYYGVSDRTLNLSQDKLEKFKAGVLDVIKPLL
notes: C-terminal 6xHis tag (pET28a-1417), E. coli BL21(DE3)
Take B1: in “isomerization, HPAEC-PAD”, the Km was 0.155 ± 0.055 mM and the kcat is 1,768 ± 19 IU μmol^−1.

B2: Galactokinase (Ruminiclostridium cellulolyticum H10) (protein)
chain: MQKNYDELKKKFCRIYGGSEEDLRIFSGPGRVNLIGEHIDYCGGFVFPAALSLDSTVIARINNDNTLRVAATDLPDRVEVELDKLESAKSLKWGNYQAGVAFMLQDAGYRLVGVDMLFHDTVPLGSGLSSSAAIELATAVTLVTLSNEVYGITKPIDMVEMAVLGQRTENEFCGVSCGIMDQFASAMGKKDHAILLDCGTLEYKYLPLKLDGYKIVLGNTKKKRALGESKYNERVRECAEGLKILQKYLPNKRNLCDITVSEFEQYKSMIEDEVIKKRVTHVISENDRVLRAAEALKRNDLEELGRLLVEANDSIRDLYEVTGKELDTMTAEAMKVEGVLGARMTGAGFGGCTVNIVPEDKVDLFIQQVGENYKEQTGITPEFYVSEISDGAREIKI
notes: C-terminal 6xHis tag (pET28a-3238), E. coli BL21(DE3)
For B2, in data set [2], the Km stood at 13.71 ± 2.42 mM and the kcat is recorded as 4,853 ± 419 IU μmol^−1. Also, in [3], the Km is 0.99 ± 0.13 mM and the kcat is recorded as 1,704 ± 75 IU μmol^−1.

B3: Xylose isomerase (Ruminiclostridium cellulolyticum H10) (protein)
chain: MSEVFSGISNIKFEGSGSDNPLAFKYYDPKAVIGGKTMEEHLRFAVAYWHTFAAPGADMFGAGSYVRPWNTMSDPLEIAKYKVEANFEFIEKLGAPFFAFHDRDIAPEGDTLAETNKNLDTIVSVIKDRMKSSPVKLLWGTTNAFGNPRFMHGASTSPNADIFAYAAAQVKKAMEITKELGGENYVFWGGREGYETLLNTDMKLELDNLARFLKMAVDYAKEIGFDGQFLIEPKPKEPTKHQYDFDTATVIGFLKTYGLDPYFKMNIEANHATLAGHTFQHELAMCRINDMLGSIDANQGDVMLGWDTDQFPTNLYDATLAMVEVLKAGGLKKGGLNFDSKVRRGSFEPSDLFYGHIAGMDTFAKGLIIANKIVEDGKFDAFVADRYSSYTNGIGKDIVEGKVGFKELEQYALTAKIQNKSGRQEMLEALLNQYILETK
notes: C-terminal 6xHis tag (plasmid printed as pET28a-3439), E. coli BL21(DE3)
As for B3, in “isomerization, HPLC-RI”, the Km was 2.0 ± 0.2 mM and the kcat was determined as 63.5 ± 1.8 IU μmol^−1.

B4: Hexokinase (Ruminiclostridium cellulolyticum H10) (protein)
chain: MGSKLEIVQDVINAFEVNKESMLRTAMLFKETMEKSLNGEKTCLKMLPSYIGKPTGKEQGTFMTIDMGGTNFRCTKYKINNGNFEKVGEIKQKLINKEKNYDLTKSDSDEKQLFGFMAECIGELLEPEESLYLGNTFSFPCRQEGINDAYLIQWTKEITTSGVVGQNINKLLEQSLKEKNINVKPVAILNDTVGTLLVAMYSYQTADIGSIMGTGHNTCYLENNHPLNGQKMIVNIESGNYNVGLPVTKYDEIIDKNSQIPGAQLLEKMVSGYYMGSLLKEVCKDLYKNNALFTNEDVDIDAFFNQNFNALMVENFILYPSNTKEQYKCSIEDAEIVKRVSEAILKRTVRLVAVSHMGILFHQENSGTSVNNEHVIAIDGTIYEKMPNAPQLMKEAFREALGDDASNIEIRLVKDGSGLGAAIAAAFAVTQ
notes: C-terminal 6xHis tag (pET28a-3221), E. coli BL21(DE3)
Take B4: in the data set “purified protein [4]”, the Km stood at 32.2 ± 7.4 mM and the kcat was 8,781 ± 1,418 IU μmol^−1. In addition, in the data set “purified protein [5]”, the Km is listed as 0.40 ± 0.07 mM and the kcat was 11,160 ± 543 IU μmol^−1.

(Values after publication PMC8576529, “Handling Several Sugars at a Time: a Case Study of Xyloglucan Utilization by Ruminiclostridium cellulolyticum” (mBio, 2021).)
